Experimental data from the supplement of paper PMC12455559.
± gives the standard deviation of the averaged measurements.

Tests used:
[1] = purified protein yield per well (BCA); higher = higher soluble expression
Summary of the method: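 Candidate enzymes were expressed in E. coli C41(DE3) in 2 mL autoinduction cultures with 100 µg/mL kanamycin, at 37 °C for 2 h and then 18 °C for 40 h. Cells were lysed, and protein was bound to Ni-charged magnetic beads and released by SUMO protease cleavage on an OT-2 robot. The read-out is purified protein yield per well, measured with the Pierce Rapid Gold BCA kit. Values below 25 ug (0.1 mg/mL) are below the detection threshold.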

[2] = PET hydrolysis, aromatic products released after 48 h (umol product/mg enzyme); higher = more PET depolymerization activity
Summary of the method: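 PET hydrolysis activity was taken as the aromatic product in the supernatant and expressed per mg enzyme. This product was measured by absorbance at 260 and 280 nm against buffer blanks. Each reaction held 5 μg (50 μL) of tagless, SUMO-cleaved candidate enzyme purified on nickel beads, plus 3.5 mg amorphous PET film or crystalline PET powder in 450 μL buffer: 50 mM NaCitrate (pH 4.5, 5.5), 50 mM NaPhosphate (pH 6.5, 7.5) or glycine (pH 8.5). Plates were sealed and left 48 h at 40 or 60 °C without shaking.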

[3] = melting temperature (DSF); higher = more thermostable
Summary of the method: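 On a Bio-Rad CFX96, fluorescence of 45 μL enzyme (0 to 0.3 mg/mL) mixed with 5 μL 5X Sypro Orange in sealed PCR plates was followed from 25 °C through 250 cycles of 0.3 °C, with a 0.3 °C/s ramp. The enzymes had been expressed in E. coli C41(DE3), taken up on nickel beads and released by SUMO protease. Melting temperature, measured by differential scanning fluorimetry, is the value given.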

[4] = substrate: aFilm, 40 °C, pH 4.5
[5] = substrate: aFilm, 40 °C, pH 5.5
[6] = substrate: aFilm, 40 °C, pH 6.5
[7] = substrate: aFilm, 40 °C, pH 7.5
[8] = substrate: aFilm, 60 °C, pH 4.5
[9] = substrate: aFilm, 60 °C, pH 5.5
[10] = substrate: aFilm, 60 °C, pH 6.5
[11] = substrate: aFilm, 60 °C, pH 7.5
[12] = substrate: cryPow, 40 °C, pH 4.5
[13] = substrate: cryPow, 40 °C, pH 5.5
[14] = substrate: cryPow, 40 °C, pH 6.5
[15] = substrate: cryPow, 40 °C, pH 7.5
[16] = substrate: cryPow, 60 °C, pH 4.5
[17] = substrate: cryPow, 60 °C, pH 5.5
[18] = substrate: cryPow, 60 °C, pH 6.5
[19] = substrate: cryPow, 60 °C, pH 7.5

Sequence | purified protein yield per well [1] | PET hydrolysis [2, 4] | PET hydrolysis [2, 5] | PET hydrolysis [2, 6] | PET hydrolysis [2, 7] | PET hydrolysis [2, 8] | PET hydrolysis [2, 9] | PET hydrolysis [2, 10] | PET hydrolysis [2, 11] | PET hydrolysis [2, 12] | PET hydrolysis [2, 13] | PET hydrolysis [2, 14] | PET hydrolysis [2, 15] | PET hydrolysis [2, 16] | PET hydrolysis [2, 17] | PET hydrolysis [2, 18] | PET hydrolysis [2, 19] | melting temperature [3]
ADNPYQRGPNPTRESVAANRGTFATAETSVGGGNGFGGAKIYYPADTSQGKFAALAVVPGYTATWAAEGAWMGHWLASFGFVIIGIDTNSRNDWDTARGDQLLAALDYLTQRSSVRDRVDANRLGVMGHSMGGGGAISAALKRPTLKAAIGNAPFSASQNLTTMRVPIALNAGQRDGTVTPSMVTGYYNQVPATTEKMYLEFSGAGHAFPTSNNSALTRKIIPWMKIFLDQDTRYQQFLCPVMDNTGISASRSSCPLIPGDPTPPTDTYSLAGAASGKCADVEGRSQTNGAKLLLWPCNGQVNQRWTQTAAGELRVYDNPKCMDAGGSGQGERVTSNACNGGNSQKWTVNANGTVTNTTSGRCLDATGTADDAPVVVNTCNGAASQNWSKRS [TEP131] | 331 µg | < 3 | < 3 | < 3 | < 3 | < 3 | < 3 | < 3 | < 3 | < 3 | < 3 | 4 | 6.5 ± 0.71 | < 3 | < 3 | < 3 | < 3 | 55.3 C
MAADNPYQRGPNPTSASVAASRGTFATAELSVPRGNGFGGGKIYYPTDTTQGTFGAIAIVPGYTATWAAEGAWMGHWLASFGFVVIGIDTNSRNDNDTARGTQLLAALDYLTQRSSVRGRVDAKRLAVMGHSMGGGGALVAARQRPSLKAAVGLAPFKPSGPPSADRVPTMVIAGQRDGTVTPSYVDGLYRAIPAGTEKAYLEFAGAGHAFPTRPNPLQMRLVIPWLKSFTDHDTRYHQFLCPLKDRTGVTAYRSTCPLVAPGARD [TEP041] | 427 µg | < 3 | < 3 | < 3 | < 3 | < 3 | < 3 | < 3 | < 3 | < 3 | < 3 | 3 | < 3 | < 3 | < 3 | < 3 | < 3 | 54.4 C
ADNPYQRGPDPTRTSVAAVNGPFANTSVSVPTGYGFNGGRIYYPTDTSQGTFGAIAISPGYTALFSAELAWMGPWLASHGFVVIGIETNSRNDFDTARGTQLLAALDYLTQQSPVRDRVDPNRLAVSGHSMGGGGALSAAIRRSSLKAVVGIAPYSPSSNLANDRVPTMIFSGQADTVVTPSYATGLYNSLPATTESVYLEVAGADHGFMVGRSNPVMIRTMLPFVKMFIDNDTRYSQFLCPLLDSSGVVTYRSTCPLLPPAPTTPPPTGTPTPTPSSNPTTPPTTPPSTPTA [ESM061] | 408 µg | < 3 | < 3 | < 3 | < 3 | < 3 | < 3 | < 3 | < 3 | 11 ± 2.8 | 23 ± 1.4 | 5 | < 3 | < 3 | < 3 | < 3 | < 3 | 62.8 C
ADSPYQRGPDPTLASVAATRGPFATTQATVPAGNGFNGGYVYYPTDTSQGTWGAVAIVPGYSALFANEEAWMGPWLASFGFVVIGIETNSRTDGADARATQLLAALDYLTRTSPIRNRVDPNRLSVMGHSAGGAGTLLAALRRPTLKAAVGLAPGTPGNNLNMSTTQVPTMLLSGQNDGTVTPSYVQGIYNTLPAGVEHAWAELAGNDHLSFTRSNPTEMRLLIPWLKTFLDNDTRYTQFLCPLADSTGVSRYSATCPLVPPDGPTPPPTTAPPTTTPPTSTPPTTSAPTTPPPSGAACTATYRTVNSWSGGFQGEVTVTAGTAAVNGWTVTWNLSNGQSISQVWNGTLSTSGSTATVRNVSYNGSLAPGGTTTFGFLGSGTPANASPTCASP [ESM014] | 85.8 µg |  |  |  |  |  |  |  |  | < 3 | < 3 | < 3 | < 3 | < 3 | < 3 | < 3 | < 3 | 59.2 C
QSAEASPPHGPDPTEESITAPRGPFEIDQKTVSRASVRGFGGGTIYYPTDTSEGTFSAVAIAPGYTAGQESLAWLGPRLASQGFVVFTIDTLTRYDQPDSRSRQLLAALDHLTDDSDVADRVDPARRGVMGHSMGGGGSLQAALDDPDLKAAIPMTPWHTTKDFSGVRTPTLIIGAQNDTVAPVSQHAKPFYESLPDDPGKAYLELAGASHFAPNVDNTTIARYSIAWLKRFLDDDTRYEQFLCPPPPDPAISDHQSTCPY [TEP105] | 207 µg | < 3 | < 3 | 5 ± 1.4 | 7.5 ± 0.71 | < 3 | < 3 | < 3 | 10 ± 4.2 | < 3 | 15.5 ± 0.71 | 46.5 ± 0.71 | 59.5 ± 0.71 | < 3 | 10.5 ± 0.71 | 101 ± 1.4 | 118 ± 13 | 61.6 C
DSPYQRGPDPTLASVAATRGPFATTQATVPAGNGFNGGFVYYPTDTSLGTWGAVAIVPGYSALFANEEAWMGPWLASFGFVVLGIETNSRTDGADARATQLLAGLDYLTRTSPVRSRVDANRLGVMGHSAGGAGTLLAALRRPSLKTAVGLAPGTPGNNLNMSTTQVPTLLLSGQNDGTVTPSYVQGIYNTLPATVEHAWAELAGNDHLSFTRSNPTEMRLLIPWLKIFLDSDTRYTQFLCPLADSTGVSRYSSTCPLVPSGGPTPPPTTTPPPPTTTPPPTSTPPPPTTTPPPTTPPAGTACTATYRTVNSWSGGFQAEVTVTAGSTATDGWTVRWNLGAGQSVSQVWNGTLSTSGTTATVRNAAYNGTLAPGTSTTFGFLGSGTPSSPSPTCTSP [ESM011] | 240 µg | < 3 | < 3 | < 3 | < 3 | < 3 | < 3 | < 3 | < 3 | < 3 | < 3 | < 3 | < 3 | < 3 | < 3 | < 3 | < 3 | 62.2 C
AAAAGRADQRGPDPSVAGVAATYGPFATAQLTVPAGNGFNGGYIYYPTDTSLGTWGAVAIVPGYSALFANEEAWMGPRLASFGFVVIGIETTTRTDGADARATQLLAALDYLTQRSPVRDRVDPGRLAVMGHSAGGAGALLAAMRRPSLRAVVGLAPGSPTGLSSLSTDVVPTLFVGGQQDPTVTPSYLDNLYATLPASTQSAYVQLGGADHLFFTRANDVEIRRLVPWLKLFLDGDTRYTQFMCPTTPDTTGVSRYSAKCPLVPPGGPTGSASPSSPGASNSPSSPPASSSAPGAACVATYRTVGQWSGGFQGEVTVTAGGRPVNGWTVRWALGSGQAVSQLWNGALSTSGSAVSVRNVSYNGALAASASTTFGFLGSGTPSTPALSCTSP [ESM041] | 106 µg |  |  |  |  |  |  |  |  | < 3 | < 3 | < 3 | < 3 |  |  |  |  | 47.8 C
ADNPYQRGPDPTAASVTAVNGPFANTSVSVPTGYGFNGGRIYYPTDTSQGTFGAIAISPGYTALFSAELAWMGPWLASHGFVVIGIETNSRNDFDTARGTQLLAALDYLTQQSPVRDRVDPNRLAVAGHSMGGGGALSAATRRPSLKAVVGIAPYSPSSNLANDRVPTMIFAGQADTVVTPSYATGLYNSLPTTTESTYLEVAGADHGFMVGRSNPVLVRTMLPFVKMFLDNDARYSQFLCPLLDNSGVVTYRSTCPLLPSTPTSPTPTTTPTSTPTPTPTVTPTTPPGSASQIVGTQSGRCVDVPNASRTNGTRVHLWDCNRQANQAWTYTANKQLQVYGTMCLDAAGTGNGAAVQIYSCHGQTNQQWNVNSNGTISSVQSGRCLDVWSTANGAQVQLYDCHGQTNQQFRLTALN [ESM130] | 138 µg |  |  |  |  |  |  |  |  | < 3 | 6 | 3 | < 3 | < 3 | < 3 | < 3 | < 3 | 58 C
DQVGQAPTADNITGNGSFATTSAAITNQTGFGGGTVYYPTADGTYPVVAIVPGFAATWSQISWLGPRVASWGFVVVGVDTTSVFDSPQQRGDEFLAALNWAANSAPASTRGKVDGTRRGVAGWSMGGGGTLEAMAKDTTLKAGVPLAPWDTTQDWSKIGKPVFIVGAQNDLIAPPASHAIPFYNSLAGPKSYLELAGADHFFPISANPTVSRAVVSWFKRFVSADDRFAPFTCGFAGAAVSAFRTTAC [TEP103] | 45.9 µg |  |  |  |  |  |  |  |  | 19 | 35 | 71 | 43 |  |  |  |  | 71.8 C
QSPSAAANPYERGPDPTVSSVAAQRGTFATAEVTVPPGNGFNGGKIYYPTDTSLGTWGAVAAVPGYTARWSAEGAWMGPWLASFGFVVIGIDTNSPNDFDTARGTQLLAALDYLTQKSPVRDRVDPSRLGVIGHSMGGGGAISAAERRPSLKAALPLAPFSPSQNLSSLRVPTMIMGARDDGTVTPSYLDGLYGGMPATTQSAYIELTGGGHGFPTWGNSNVTRRTIPWLKIFLDNDTRYTQFLCPSPADRTGVSRSQTKCPYVPPGTTTPPPSGGQIVGAGSGRCLDVPNASQTNGTQLQLWDCSANANQKWARTGTGELRVYGNKCLDAEGAGTSPGTRVIIWDCHGGQNQRWNVNTSGTITRADPVCAWTRKATAPGTAPRRSWGTAMAGPASAGPSGSED [TEP122] | 186 µg |  |  |  |  |  |  |  |  | < 3 | < 3 | < 3 | < 3 | < 3 | < 3 | < 3 | < 3 | 54.1 C
